Biological target: the molecule itself
Assay: SDS-PAGE (SDS-resistant dimer band) with LC-MS/MS of the excised bands; lyophilised pure binase on 15% SDS-PAGE with 0.1% SDS; 12 and 25 kDa bands, both detected by anti-binase immunoblot and in-gel RNase activity; 25 kDa band not fully lost with 2% SDS or 4-8 M urea; bands trypsin-digested and identified by LC-MS/MS

B1: binase (guanyl-preferring RNase secreted by Bacillus pumilus), wild-type enzyme designated as "native" binase (enzyme, Bacillus pumilus (former B. intermedius), UniProt P00649 54-162, looked up)
chain: AVINTFDGVADYLIRYKRLPDNYITKSQASALGWVASKGNLAEVAPGKSIGGDVFSNREGRLPSASGRTWREADINYVSGFRNADRLVYSSDWLIYKTTDHYATFTRIR
notes: binase, secreted RNase of Bacillus pumilus (former B. intermedius); single chain of 109 amino acids, molecular weight 12.3 kDa; secreted enzyme isolated from the medium; binase has no sulfhydryl groups; also called B. intermedius RNase; wild-type binase; source: isolated from the medium of B. pumilus 7P, purified (MonoS), lyophilised; also unpurified B. pumilus culture fluid
stoichiometry N: 2

— article PMC4281067, “New Insight into Secreted Ribonuclease Structure: Binase Is a Natural Dimer” (PLoS ONE, 2014)
